Measured values published in patent publication US20240376151A1, “STAPLED PEPTIDES AND METHODS THEREOF” (FOG PHARMACEUTICALS, INC., priority 2022, published 2024).
Numbered stars: 1 amine (or outer) side, 2 acyl side, 3 side chain; on linkers, the order of the positions; unused ones are H or OH. Bridge positions count the residues as written; N and C are the ends. Ends that are not written are not given here. Phenylene(1,4-NHCOCH2)2 = O=C(C[*:1])Nc1ccc(NC(=O)C[*:2])cc1; 8‑residue Gly‑rich linker = not defined here

Tests used:
[1] = biological target: MDM2 p53-binding domain + beta-catenin Armadillo domain (the two proteins bridged in the ternary complex) (human) (UniProt Q00987); assay: direct FP, ternary complex of β-catenin (Armadillo domain) and MDM2 (p53-binding domain)
Chain of MDM2 p53-binding domain + beta-catenin Armadillo domain (the two proteins bridged in the ternary complex) (human) (Q00987 17-111, chain 1 of 2): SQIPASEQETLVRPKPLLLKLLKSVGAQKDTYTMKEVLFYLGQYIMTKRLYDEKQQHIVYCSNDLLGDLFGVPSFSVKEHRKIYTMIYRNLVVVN
Chain of MDM2 p53-binding domain + beta-catenin Armadillo domain (the two proteins bridged in the ternary complex) (human) (chain, as listed by the source, chain 2 of 2): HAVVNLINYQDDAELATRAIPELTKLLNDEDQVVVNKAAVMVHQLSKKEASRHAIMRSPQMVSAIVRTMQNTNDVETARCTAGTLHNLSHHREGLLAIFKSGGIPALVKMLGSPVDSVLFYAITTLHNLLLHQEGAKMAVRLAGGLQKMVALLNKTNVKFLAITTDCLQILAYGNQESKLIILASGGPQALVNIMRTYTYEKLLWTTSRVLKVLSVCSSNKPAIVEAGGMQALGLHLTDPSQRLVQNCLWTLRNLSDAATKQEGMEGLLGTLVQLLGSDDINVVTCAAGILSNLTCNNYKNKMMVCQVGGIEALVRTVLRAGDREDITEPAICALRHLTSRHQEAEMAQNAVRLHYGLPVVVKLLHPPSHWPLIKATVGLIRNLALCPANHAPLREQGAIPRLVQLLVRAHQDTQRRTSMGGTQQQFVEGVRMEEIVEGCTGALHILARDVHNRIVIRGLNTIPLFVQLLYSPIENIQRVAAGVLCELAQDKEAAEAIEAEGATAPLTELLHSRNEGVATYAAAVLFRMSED

[2] = biological target: RNF31 PUB domain protein (residues 1-179), biotinylated (Homo sapiens (Human)) (UniProt Q96EP0); assay: phage display screen on bead-immobilized RNF31 PUB, NGS
Chain of RNF31 PUB domain protein (residues 1-179), biotinylated (Homo sapiens (Human)) (Q96EP0 1-179): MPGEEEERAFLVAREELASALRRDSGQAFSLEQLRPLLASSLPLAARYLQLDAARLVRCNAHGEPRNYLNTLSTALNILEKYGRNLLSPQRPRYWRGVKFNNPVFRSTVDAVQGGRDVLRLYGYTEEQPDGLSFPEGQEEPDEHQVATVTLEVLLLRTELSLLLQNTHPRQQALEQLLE

[3] = biological target: VHL-ELOBC (human), P40337; assay: phage display screen, NGS; column head 300 nM (row is one cell short of the head, alignment unsure)
Chain of VHL-ELOBC (human), P40337 (P40337 54-213 limits assumed, chain 1 of 3): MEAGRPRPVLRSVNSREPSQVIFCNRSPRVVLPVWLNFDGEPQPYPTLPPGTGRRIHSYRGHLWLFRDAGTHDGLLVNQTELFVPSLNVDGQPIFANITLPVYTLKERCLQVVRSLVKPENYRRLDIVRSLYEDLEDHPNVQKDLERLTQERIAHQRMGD
Chain of VHL-ELOBC (human), P40337 (Q15370 1-104 limits assumed, chain 2 of 3, further chain): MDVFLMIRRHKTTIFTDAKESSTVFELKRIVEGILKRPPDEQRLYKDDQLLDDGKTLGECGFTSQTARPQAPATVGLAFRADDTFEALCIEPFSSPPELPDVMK
Chain of VHL-ELOBC (human), P40337 (Q15369 17-112 limits assumed, chain 3 of 3, further chain): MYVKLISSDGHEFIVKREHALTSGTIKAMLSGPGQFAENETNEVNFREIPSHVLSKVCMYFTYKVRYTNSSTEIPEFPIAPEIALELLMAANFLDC

[4] = biological target: human PD-L1 (residues 18-239) with C-terminal human IgG Fc-Avi tag (human), Q9NZQ7; assay: SPR
Chain of human PD-L1 (residues 18-239) with C-terminal human IgG Fc-Avi tag (human), Q9NZQ7 (Q9NZQ7 18-239): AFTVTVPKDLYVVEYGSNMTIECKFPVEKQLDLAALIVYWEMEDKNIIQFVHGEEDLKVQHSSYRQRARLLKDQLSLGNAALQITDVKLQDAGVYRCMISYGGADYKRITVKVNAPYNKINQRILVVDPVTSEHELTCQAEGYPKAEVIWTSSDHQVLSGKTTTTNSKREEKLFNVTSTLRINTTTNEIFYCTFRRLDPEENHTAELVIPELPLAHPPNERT

[5] = biological target: T1, CUL1 N-terminal domain (residues 15-410, V367R/L371D) (human), Q13616; assay: phage display screen, bead-bound target, spike-in-normalized NGS; target 10 nM
[6] = biological target: T1, CUL1 N-terminal domain (residues …); assay: phage display screen, bead-bound target, spike-in-normalized NGS; target 30 nM
[7] = biological target: T1, CUL1 N-terminal domain (residues …); assay: phage display screen, bead-bound target, spike-in-normalized NGS; target 100 nM
[8] = biological target: T1, CUL1 N-terminal domain (residues …); assay: phage display screen, bead-bound target, spike-in-normalized NGS; target 300 nM
[9] = biological target: T1, CUL1 N-terminal domain (residues …); assay: phage display screen, bead-bound target, spike-in-normalized NGS; target 1000 nM
[10] = biological target: T1, CUL1 N-terminal domain (residues …); assay: phage display screen, bead-bound target, spike-in-normalized NGS; target 1000 nM (second column)

B1: H329 (peptide)
peptide: Ac-PMEQQAICFQAAWMCLADDWT-NH2
modifications: bridge 8-15; not fully specified (bridges); printed as Ac-PMEQQAICFQAAWMCLADDWT-NH2
[1]
  EC50: 0.014 µM

## DPADWTCVLAAHNCLYT-{8‑residue Gly‑rich linker-M13 pIII} (peptide, not shown: large carriers, linker 7-14 via Phenylene(1,4-NHCOCH2)2 (inferred); reading uncertain)
[2]
  normalized phage count at Target Concentration 10 (normalized phage counts): 0
  normalized phage count at Target Concentration 30 (normalized phage counts): 0
  normalized phage count at Target Concentration 100 (normalized phage counts): 0
  normalized phage count at Target Concentration 300 (normalized phage counts): 1
  normalized phage count at Target Concentration 1000 (normalized phage counts): 3
  normalized phage count at Target Concentration 1000 (second column) (normalized phage counts): 9

## DPAHILCEMAARNCLYN-{8‑residue Gly‑rich linker-M13 pIII} (peptide, not shown: large carriers, linker 7-14 via Phenylene(1,4-NHCOCH2)2 (inferred); reading uncertain)
[2]
  normalized phage count at Target Concentration 10 (normalized phage counts): 3
  normalized phage count at Target Concentration 30 (normalized phage counts): 1
  normalized phage count at Target Concentration 100 (normalized phage counts): 1
  normalized phage count at Target Concentration 300 (normalized phage counts): 1
  normalized phage count at Target Concentration 1000 (normalized phage counts): 10
  normalized phage count at Target Concentration 1000 (second column) (normalized phage counts): 2

## DPAWWHCVDAALQCDYY (modifications not checked)
[3]
  phage count (normalised phage counts): 40

## DPAWYACVDAAYFCDYQ (modifications not checked)
[3]
  phage count (normalised phage counts): 35

## DPAAADCQWAAFLCRVY (modifications not checked) [FP30790]
[4]
  Kd: 10 µM

## DPAWWHCVAAATQCDQR (modifications not checked)
[3]
  phage count (normalised phage counts): 79

## DPAVMECDWAATICDIF (modifications not checked) [phage-displayed Helicon …]
[5]
  normalized phage count (normalized counts): 0
[6]
  normalized phage count (normalized counts): 2
[7]
  normalized phage count (normalized counts): 154
[8]
  normalized phage count (normalized counts): 402
[9]
  normalized phage count (normalized counts): 477
[10]
  normalized phage count (normalized counts): 419
